Experimental data reported in US20150344570A1 (published 2015).

T1: FcγRIIb extracellular domain with C-terminal His tag (human, UniProt P31994 43-217)
T1 construct: extracellular domain; Soluble receptor expressed in FreeStyle293 cells, used as analyte in Biacore; also called FcgRIIb; 2b; not shown: His tag attached to the C terminus
T1 sequence (looked up): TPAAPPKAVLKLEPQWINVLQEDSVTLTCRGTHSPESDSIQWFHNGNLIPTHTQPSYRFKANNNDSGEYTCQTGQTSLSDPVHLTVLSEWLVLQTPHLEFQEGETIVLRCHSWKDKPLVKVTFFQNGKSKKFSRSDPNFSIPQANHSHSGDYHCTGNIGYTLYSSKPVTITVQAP


Assays:
[1] = target: T2, FcγRIIIa extracellular domain with C-terminal His tag (human, UniProt P08637 17-208); test: SPR (Biacore); He/Con_3a (FcγRIIIa) divided by He/Con_2b (FcγRIIb)
T2 construct: extracellular domain; also called FcgRIIIa; 3a; not shown: His tag attached to the C terminus
T2 sequence (P08637 17-208): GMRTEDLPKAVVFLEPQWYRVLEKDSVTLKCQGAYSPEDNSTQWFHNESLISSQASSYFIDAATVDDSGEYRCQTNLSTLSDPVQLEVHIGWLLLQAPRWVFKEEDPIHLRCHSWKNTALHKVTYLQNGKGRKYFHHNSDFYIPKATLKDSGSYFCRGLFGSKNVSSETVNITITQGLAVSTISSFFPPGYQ

[2] = target: T1, FcγRIIb extracellular domain with …; test: SPR (Biacore T100), antibody captured on antigen peptide chip, FcγR as analyte
Protocol: (§1) Analysis of interaction between objective antibody and the FcγR was carried out using Biacore T100 (GE Healthcare). HBS-EP+ (GE Healthcare) was used as the running buffer, and the measurement temperature was set to 25° C. Chips produced by immobilizing the antigen peptide by the amine coupling method to a Series S Sencor Chip CM5 (GE Healthcare), or alternatively, chips produced by allowing preliminarily biotinylated antigen peptides to interact with and immobilize onto a Series S Sensor Chip SA (certified) (GE Healthcare) were used. Antibodies of interest were captured onto an antigen peptide-immobilized chip, and allowed to interact to each FcγR diluted with running buffer. To regenerate and repeatedly use the chip, the antibodies captured on the chip were washed off by reacting 10 mM glycine-HCl, pH 1.5.

[3] = target: T2, FcγRIIIa extracellular domain with …; test: as above
Protocol: as §1

Binder	He_3a/2b (IIIa/IIb) [1]	He/Con_2b [2]	He/Con_3a [3]
GpH7-A5/GpH7-B3 variant S267_08L/GpL16-k0 (antibody, human IgG1, kappa, Heterodimerized antibody (He Ab) with the mutation in only one H chain; also called He Ab S267L) heavy 1: not shown heavy 2: not shown light: DIVMTQSPLSLPVTPGEPASISCQASESLVHSNRNTYLHWYLQKPGQSPQLLIYKVSNRFSGVPDRFSGSGSGTDFTLKISRVEAEDVGVYYCSQNTHVPPTFGQGTKVEIERTVAAPSVFIFPPSDEQLKSGTASVVCLLNNFYPREAKVQWKVDNALQSGNSQESVTEQDSKDSTYSLSSTLTLSKADYEKHKVYACEVTHQGLSSPVTKSFNRGEC	0.18 ratio	109 relative binding, GpH7-A5/GpH7-B3/GpL16-k0 = 100	19.5 relative binding, GpH7-A5/GpH7-B3/GpL16-k0 = 100
GpH7-A5/GpH7-B3 variant H268_18N/GpL16-k0 (antibody, human IgG1, kappa, Heterodimerized antibody (He Ab) with the mutation in only one H chain; also called He Ab H268N) heavy 1: not shown heavy 2: not shown light: DIVMTQSPLSLPVTPGEPASISCQASESLVHSNRNTYLHWYLQKPGQSPQLLIYKVSNRFSGVPDRFSGSGSGTDFTLKISRVEAEDVGVYYCSQNTHVPPTFGQGTKVEIERTVAAPSVFIFPPSDEQLKSGTASVVCLLNNFYPREAKVQWKVDNALQSGNSQESVTEQDSKDSTYSLSSTLTLSKADYEKHKVYACEVTHQGLSSPVTKSFNRGEC	0.67 ratio	156 relative binding, GpH7-A5/GpH7-B3/GpL16-k0 = 100	104 relative binding, GpH7-A5/GpH7-B3/GpL16-k0 = 100

Continued, values first:

He_3a/2b (IIIa/IIb) [1]	He/Con_2b [2]	He/Con_3a [3]	Binder
0.67 ratio	144 relative binding, GpH7-A5/GpH7-B3/GpL16-k0 = 100	96.7 relative binding, GpH7-A5/GpH7-B3/GpL16-k0 = 100	GpH7-A5/GpH7-B3 variant H268_01G/GpL16-k0 (antibody, human IgG1, kappa, Heterodimerized antibody (He Ab) with the mutation in only one H chain; also called He Ab H268G) heavy 1: not shown heavy 2: not shown light: DIVMTQSPLSLPVTPGEPASISCQASESLVHSNRNTYLHWYLQKPGQSPQLLIYKVSNRFSGVPDRFSGSGSGTDFTLKISRVEAEDVGVYYCSQNTHVPPTFGQGTKVEIERTVAAPSVFIFPPSDEQLKSGTASVVCLLNNFYPREAKVQWKVDNALQSGNSQESVTEQDSKDSTYSLSSTLTLSKADYEKHKVYACEVTHQGLSSPVTKSFNRGEC
0.76 ratio	160 relative binding, GpH7-A5/GpH7-B3/GpL16-k0 = 100	122 relative binding, GpH7-A5/GpH7-B3/GpL16-k0 = 100	GpH7-A5/GpH7-B3 variant H268_13S/GpL16-k0 (antibody, human IgG1, kappa, Heterodimerized antibody (He Ab) with the mutation in only one H chain; also called He Ab H268S) heavy 1: not shown heavy 2: not shown light: DIVMTQSPLSLPVTPGEPASISCQASESLVHSNRNTYLHWYLQKPGQSPQLLIYKVSNRFSGVPDRFSGSGSGTDFTLKISRVEAEDVGVYYCSQNTHVPPTFGQGTKVEIERTVAAPSVFIFPPSDEQLKSGTASVVCLLNNFYPREAKVQWKVDNALQSGNSQESVTEQDSKDSTYSLSSTLTLSKADYEKHKVYACEVTHQGLSSPVTKSFNRGEC
